Key:
[1] = biological target: human IGF1R-luciferase fusion protein (IGF1R-Luc) (human); test: bridge assay: immobilized IGF1R-PGA14tag, antibody, IGF1R-Luc
[2] = biological target: human IGF1R-luciferase fusion protein (IGF1R-Luc) (human); test: bridge assay: immobilized IGF1R-PGA14tag, antibody at 3 ng/ml, IGF1R-Luc
[3] = biological target: human IGF1R-luciferase fusion protein (IGF1R-Luc) (human); test: bridge assay: immobilized IGF1R-PGA14tag, antibody at 12 ng/ml, IGF1R-Luc
[4] = biological target: human IGF1R-luciferase fusion protein (IGF1R-Luc) (human); test: bridge assay: immobilized IGF1R-PGA14tag, antibody at 49 ng/ml, IGF1R-Luc
[5] = biological target: human IGF1R-luciferase fusion protein (IGF1R-Luc) (human); test: bridge assay: immobilized IGF1R-PGA14tag, antibody at 0.2 ng/ml, IGF1R-Luc
[6] = biological target: human IGF1R-luciferase fusion protein (IGF1R-Luc) (human); test: bridge assay: immobilized IGF1R-PGA14tag, antibody at 0.8 ng/ml, IGF1R-Luc
[7] = biological target: human IGF1R-luciferase fusion protein (IGF1R-Luc) (human); test: bridge assay: immobilized IGF1R-PGA14tag, antibody at 195 ng/ml, IGF1R-Luc
[8] = biological target: human IGF1R-luciferase fusion protein (IGF1R-Luc) (human); test: bridge assay: immobilized IGF1R-PGA14tag, antibody at 781 ng/ml, IGF1R-Luc
[9] = biological target: human IGF1R-luciferase fusion protein (IGF1R-Luc) (human); test: bridge assay: immobilized IGF1R-PGA14tag, antibody at 0.05 ng/ml, IGF1R-Luc
[10] = biological target: human IGF1R-luciferase fusion protein (IGF1R-Luc) (human); test: bridge assay: immobilized IGF1R-PGA14tag, antibody at 3125 ng/ml, IGF1R-Luc
[11] = biological target: human IGF1R-luciferase fusion protein (IGF1R-Luc) (human); test: bridge assay: immobilized IGF1R-PGA14tag, antibody at 12500 ng/ml, IGF1R-Luc
[12] = biological target: human IGF1R-luciferase fusion protein (IGF1R-Luc) (human); test: bridge assay: immobilized IGF1R-PGA14tag, antibody at 50000 ng/ml, IGF1R-Luc

human IGF1R-luciferase fusion protein (IGF1R-Luc) (human), sequence (chain, as listed by the source limits assumed): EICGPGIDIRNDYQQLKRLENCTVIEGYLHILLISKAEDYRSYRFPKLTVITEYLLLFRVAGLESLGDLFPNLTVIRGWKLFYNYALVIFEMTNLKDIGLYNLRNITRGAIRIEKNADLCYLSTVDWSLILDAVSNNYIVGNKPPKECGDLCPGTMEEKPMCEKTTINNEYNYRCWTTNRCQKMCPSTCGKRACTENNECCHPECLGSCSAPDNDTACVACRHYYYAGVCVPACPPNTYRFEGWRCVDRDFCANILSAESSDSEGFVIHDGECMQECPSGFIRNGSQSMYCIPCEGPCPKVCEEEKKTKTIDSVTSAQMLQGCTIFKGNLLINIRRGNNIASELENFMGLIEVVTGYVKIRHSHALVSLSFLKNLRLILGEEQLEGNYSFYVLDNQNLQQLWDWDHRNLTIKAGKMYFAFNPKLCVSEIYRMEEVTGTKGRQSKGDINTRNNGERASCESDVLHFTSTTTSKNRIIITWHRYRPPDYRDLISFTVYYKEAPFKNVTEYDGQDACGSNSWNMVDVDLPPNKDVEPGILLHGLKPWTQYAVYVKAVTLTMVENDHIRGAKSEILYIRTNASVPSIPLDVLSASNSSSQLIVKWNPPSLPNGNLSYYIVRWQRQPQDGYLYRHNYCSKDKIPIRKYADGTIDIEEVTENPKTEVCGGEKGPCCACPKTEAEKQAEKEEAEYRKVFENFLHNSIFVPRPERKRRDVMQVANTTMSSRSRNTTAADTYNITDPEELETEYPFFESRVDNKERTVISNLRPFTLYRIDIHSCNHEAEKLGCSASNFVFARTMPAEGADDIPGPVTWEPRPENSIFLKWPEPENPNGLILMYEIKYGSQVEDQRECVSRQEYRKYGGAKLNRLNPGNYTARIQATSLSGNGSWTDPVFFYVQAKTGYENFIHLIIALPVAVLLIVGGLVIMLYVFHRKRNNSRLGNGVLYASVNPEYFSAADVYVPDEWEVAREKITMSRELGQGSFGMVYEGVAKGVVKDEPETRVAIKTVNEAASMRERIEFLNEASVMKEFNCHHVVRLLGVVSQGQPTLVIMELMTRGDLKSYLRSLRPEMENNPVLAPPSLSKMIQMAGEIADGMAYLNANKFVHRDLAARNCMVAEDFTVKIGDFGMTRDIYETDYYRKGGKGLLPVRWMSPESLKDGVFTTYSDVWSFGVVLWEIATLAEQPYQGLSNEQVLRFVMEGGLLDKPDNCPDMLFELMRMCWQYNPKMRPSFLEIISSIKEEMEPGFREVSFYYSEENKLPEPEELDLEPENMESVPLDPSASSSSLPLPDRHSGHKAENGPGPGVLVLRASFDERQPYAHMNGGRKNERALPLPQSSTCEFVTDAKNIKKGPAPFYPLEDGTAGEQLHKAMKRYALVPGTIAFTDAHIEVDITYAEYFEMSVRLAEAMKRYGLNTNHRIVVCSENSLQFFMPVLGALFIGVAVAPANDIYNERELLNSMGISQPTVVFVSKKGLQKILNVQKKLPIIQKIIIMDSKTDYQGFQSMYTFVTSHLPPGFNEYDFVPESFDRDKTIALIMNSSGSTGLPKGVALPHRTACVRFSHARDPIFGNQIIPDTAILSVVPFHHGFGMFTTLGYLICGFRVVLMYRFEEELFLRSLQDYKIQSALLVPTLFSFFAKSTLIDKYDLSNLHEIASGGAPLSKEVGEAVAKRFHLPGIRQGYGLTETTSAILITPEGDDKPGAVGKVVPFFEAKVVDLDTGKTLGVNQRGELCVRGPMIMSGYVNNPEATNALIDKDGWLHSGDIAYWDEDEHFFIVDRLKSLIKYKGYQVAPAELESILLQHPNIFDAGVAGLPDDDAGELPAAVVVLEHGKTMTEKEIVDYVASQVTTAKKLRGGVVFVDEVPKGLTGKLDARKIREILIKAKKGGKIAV

## Monoclonal antibody to the extracellular domain of IGF1R (anti-IGF1R clone#24-75, Millipore, USA)
[1]
  detection limit: 0.2 ng/mL
[2]
  RLU bound: 11800 RLU
[3]
  RLU bound: 27000 RLU
[4]
  RLU bound: 88900 RLU
[5]
  RLU bound: 5900 RLU
[6]
  RLU bound: 8860 RLU
[7]
  RLU bound: 235000 RLU
[8]
  RLU bound: 476000 RLU
[9]
  RLU bound: 5370 RLU
[10]
  RLU bound: 627000 RLU
[11]
  RLU bound: 767000 RLU
[12]
  RLU bound: 805000 RLU

Reference: patent US20150301040A1
